± gives the standard deviation of the averaged measurements.
Test: total protein half-life in vivo (active degradation + dilution); higher = more stable protein
[1] = E. coli NCM3722 delta-clpP delta-lon delta-hslV, growth: N-lim chemostat, doubling time 6 h
[2] = E. coli NCM3722 delta-clpP, growth: N-lim chemostat, doubling time 6 h
[3] = E. coli NCM3722 delta-hslV, growth: N-lim chemostat, doubling time 6 h
[4] = E. coli NCM3722 delta-lon, growth: N-lim chemostat, doubling time 6 h
[5] = E. coli NCM3722 delta-smpB, growth: N-lim chemostat, doubling time 6 h
[6] = wild type E. coli NCM3722, growth: C-lim chemostat, doubling time 3 h
[7] = wild type E. coli NCM3722, growth: C-lim chemostat, doubling time 6 h
[8] = wild type E. coli NCM3722, growth: C-lim chemostat, doubling time 12 h
[9] = wild type E. coli NCM3722, growth: N-lim chemostat, doubling time 6 h
[10] = wild type E. coli NCM3722, growth: N-lim chemostat, doubling time 12 h
[11] = wild type E. coli NCM3722, growth: P-lim chemostat, doubling time 6 h
[12] = wild type E. coli NCM3722, growth: P-lim chemostat, doubling time 12 h

| Sequence | total protein half-life in vivo [1] [h] | total protein half-life in vivo [2] [h] | total protein half-life in vivo [3] [h] | total protein half-life in vivo [4] [h] | total protein half-life in vivo [5] [h] | total protein half-life in vivo [6] [h] | total protein half-life in vivo [7] [h] | total protein half-life in vivo [8] [h] | total protein half-life in vivo [9] [h] | total protein half-life in vivo [10] [h] | total protein half-life in vivo [11] [h] | total protein half-life in vivo [12] [h] |
| --- | --- | --- | --- | --- | --- | --- | --- | --- | --- | --- | --- | --- |
| MFQQQKDWETRENAFAAFTMGPLTDFWRQRDEAEFTGVDDIPVRFVRFRAQHHDRVVVICPGRIESYVKYAELAYDLFHLGFDVLIIDHRGQGRSGRLLADPHLGHVNRFNDYVDDLAAFWQQEVQPGPWRKRYILAHSMGGAISTLFLQRHPGVCDAIALTAPMFGIVIRMPSFMARQILNWAEAHPRFRDGYAIGTGRWRALPFAINVLTHSRQRYRRNLRFYADDPTIRVGGPTYHWVRESILAGEQVLAGAGDDATPTLLLQAEEERVVDNRMHDRFCELRTAAGHPVEGGRPLVIKGAYHEILFEKDAMRSVALHAIVDFFNRHNSPSGNRSTEV | 5.43 ± 1.2 | > 8 | 4.87 ± 0.73 | 4.93 ± 0.22 | 4.57 ± 0.31 | 3.13 ± 0.43 | 6.52 ± 0.38 | 11.3 ± 1.8 | 4.42 ± 0.28 | 8.56 ± 0.72 | 6.17 ± 0.69 | 10.8 ± 0.91 |
| MRKIKGLRWYMIALVTLGTVLGYLTRNTVAAAAPTLMEELNISTQQYSYIIAAYSAAYTVMQPVAGYVLDVLGTKIGYAMFAVLWAVFCGATALAGSWGGLAVARGAVGAAEAAMIPAGLKASSEWFPAKERSIAVGYFNVGSSIGAMIAPPLVVWAIVMHSWQMAFIISGALSFIWAMAWLIFYKHPRDQKHLTDEERDYIINGQEAQHQVSTAKKMSVGQILRNRQFWGIALPRFLAEPAWGTFNAWIPLFMFKVYGFNLKEIAMFAWMPMLFADLGCILGGYLPPLFQRWFGVNLIVSRKMVVTLGAVLMIGPGMIGLFTNPYVAIMLLCIGGFAHQALSGALITLSSDVFGRNEVATANGLTGMSAWLASTLFALVVGALADTIGFSPLFAVLAVFDLLGALVIWTVLQNKPAIEVAQETHNDPAPQH [P0AA78] | – | – | – | – | – | – | 5.93 ± 0.18 | 9.36 ± 0.82 | – | – | – | – |
| MTTKRKPYVRPMTSTWWKKLPFYRFYMLREGTAVPAVWFSIELIFGLFALKNGPEAWAGFVDFLQNPVIVIINLITLAAALLHTKTWFELAPKAANIIVKDEKMGPEPIIKSLWAVTVVATIVILFVALYW [P0A8Q0] | 5.7 ± 0.4 | – | 5.78 ± 0.49 | 6.06 ± 0.09 | 6.13 ± 0.39 | 2.81 ± 0.031 | 5.55 ± 0.079 | 10.9 ± 0.46 | 5.63 ± 0.14 | 11.3 ± 1.9 | 5.09 ± 0.12 | 12.5 ± 0.33 |
| MKPLSSPLQQYWQTVVERLPEPLAEESLSAQAKSVLTFSDFVQDSVIAHPEWLTELESQPPQADEWQHYAAWLQEALCNVSDEAGLMRELRLFRRRIMVRIAWAQTLALVTEESILQQLSYLAETLIVAARDWLYDACCREWGTPCNAQGEAQPLLILGMGKLGGGELNFSSDIDLIFAWPEHGCTQGGRRELDNAQFFTRMGQRLIKVLDQPTQDGFVYRVDMRLRPFGESGPLVLSFAALEDYYQEQGRDWERYAMVKARIMGDSEGVYANELRAMLRPFVFRRYIDFSVIQSLRNMKGMIAREVRRRGLTDNIKLGAGGIREIEFIVQVFQLIRGGREPSLQSRSLLPTLSAIAELHLLSENDAEQLRVAYLFLRRLENLLQSINDEQTQTLPSDELNRARLAWAMDFADWPQLTGALTAHMTNVRRVFNELIGDDESETQEESLSEQWRELWQDALQEDDTTPVLAHLSEDDRKQVLTLIADFRKELDKRTIGPRGRQVLDHLMPHLLSDVCAREDAAVTLSRITALLVGIVTRTTYLELLSEFPAALKHLISLCAASPMIASQLARYPLLLDELLDPNTLYQPTATDAYRDELRQYLLRVPEDDEEQQLEALRQFKQAQLLRIAAADIAGTLPVMKVSDHLTWLAEAMIDAVVQQAWVQMVARYGKPNHLNEREGRGFAVVGYGKLGGWELGYSSDLDLIFLHDCPMDAMTDGEREIDGRQFYLRLAQRIMHLFSTRTSSGILYEVDARLRPSGAAGMLVTSAEAFADYQKNEAWTWEHQALVRARVVYGDPQLTAHFDAVRREIMTLPREGKTLQTEVREMREKMRAHLGNKHRDRFDIKADEGGITDIEFITQYLVLRYAHEKPKLTRWSDNVRILELLAQNDIMEEQEAMALTRAYTTLRDELHHLALQELPGHVSEDCFTAERELVRASWQKWLVEE | 4.99 ± 0.16 | 4.75 ± 0.75 | 4.215 ± 0.0047 | 5.2 ± 0.75 | 4.64 ± 0.27 | 3.414 ± 0.027 | 6.65 ± 1.2 | 12.9 ± 0.85 | 4.22 ± 0.24 | 7.85 ± 0.1 | 6.33 ± 0.28 | 13.3 ± 1.3 |
| MDLRRFITLKTVVEEGSFLRASQKLCCTQSTVTFHIQQLEQEFSVQLFEKIGRRMCLTREGKKLLPHIYELTRVMDTLREAAKKESDPDGELRVVSGETLLSYRMPQVLQRFRQRAPKVRLSLQSLNCYVIRDALLNDEADVGVFYRVGNDDALNRRELGEQSLVLVASPQIADVDFTEPGRHNACSFIINEPQCVFRQIFESTLRQRRITVENTIELISIESIKRCVAANIGVSYLPRFAVAKELECGELIELPFGEQSQTITAMCAHHAGKAVSPAMHTFIQCVEESFVAG | 5.31 ± 0.83 | > 8 | 4.13 | 4.83 | 3.41 | – | 4.86 | 8.259 ± 0.077 | 4.37 ± 0.49 | 6.51 | 5.85 | 7.91 |
| MQKDALNNVHITDEQVLMTPEQLKAAFPLSLQQEAQIADSRKSISDIIAGRDPRLLVVCGPCSIHDPETALEYARRFKALAAEVSDSLYLVMRVYFEKPRTTVGWKGLINDPHMDGSFDVEAGLQIARKLLLELVNMGLPLATEALDPNSPQYLGDLFSWSAIGARTTESQTHREMASGLSMPVGFKNGTDGSLATAINAMRAAAQPHRFVGINQAGQVALLQTQGNPDGHVILRGGKAPNYSPADVAQCEKEMEQAGLRPSLMVDCSHGNSNKDYRRQPAVAESVVAQIKDGNRSIIGLMIESNIHEGNQSSEQPRSEMKYGVSVTDACISWEMTDALLREIHQDLNGQLTARVA | 3.13 ± 0.21 | 1.05 ± 0.12 | 0.859 ± 0.25 | 3.06 ± 3 | 0.903 ± 0.017 | 2.24 ± 0.07 | 2.79 ± 0.37 | 3.84 ± 0.57 | 0.94 | 1.81 | 1.57 | 3.5 ± 0.6 |

Source: the supplement of paper PMC11246515
